Data reported in patent US20230382819A1, “PROCESSES FOR SYNTHESIS OF ALPHA-EMITTING RADIOPHARMACEUTICALS” (priority 2020, published 2023).

Columns and labels:
[1] = Maximum tolerated activity/toxicity in non-tumor bearing mice; type: in vivo
Protocol: (§1) Radiochemical synthesis and characterization. Complexation was achieved by reacting DOTATATE (5-10 μg in 5-10 μL water from 1.0 mg/mL solution) with ^225Ac(NO3)3 (3.4 MBq) that was diluted in 100 μL of water containing 10 μL of 20% L-ascorbic acid. The pH was adjusted to 5.5-6 using 1 M Tris buffer (10-12 μL), and then incubated at 60° C. for 1 h (FIG. 1). […] Animal studies. An equal number of male and female subjects were assigned to each experimental cohort. All the animals were purchased from Charles River (Wilmington, MA). Injected Activity Measurement. […] Activities in syringes were measured using the Atomlab 500 Dose Calibrator (Biodex). Per the manufacturer's recommendations, measurements were made for 2 mins using dial number 38.2 and the assumption that ^225Ac and daughters were in secular equilibrium. Activity was injected into each mouse via tail-vein catheter (50 μL dead volume). […] The α activity in μCi of each radionuclide was determined by fitting each peak with a multi-Gaussian fit and integrating to determine the net number of counts while incorporating the acquisition time. The net administered activities were determined by subtraction of the residual activity in the catheter and syringe from the dose calibrator measured pre-injection activity. Spectra for activity calculations were acquired ≥24 h post-radiosynthesis ensuring that ^225Ac and daughters were in secular equilibrium (see Robertson, A. K. H.; et al. Phys Med Biol 2017, 62 (11), 4406-4420). Maximum tolerated activity/toxicity. […] Then, mice were weighed twice per week and monitored for 5 months for signs of distressed behavior, followed by euthanasia and tissue collection. Blood urea nitrogen (BUN), creatinine, alkaline phosphatase (ALKP), alanine aminotransferase (ALT) and aspartate aminotransferase (AST) content in serum were analyzed using commercial IDEXX CLIP (IDEXX, Main, USA) and read by an automated biochemical analyzer (IDEXX Catalyst DX, Main, USA) following the manufacturer's protocol. Bone, bone marrow, brain, cecum, duodenum, kidney, liver, lymph nodes, muscle, pancreas, salivary gland, small intestine, and spleen were harvested and fixed in 10% formalin. Bone was decalcified in 14% ethylene diaminetetraacetic acid (EDTA) solution after fixation in formalin. All tissues were embedded in paraffin, sectioned (4-6 μm thickness), stained with hematoxylin and eosin (H&E), and examined by the veterinary pathologist (R.E.), in a blind manner. Biodistribution (BD). BD studies for ^225Ac-DOTATATE were performed using groups of normal non-tumor bearing BALB/c mice. […] Groups of animals were euthanized at 24, 48 and 96 h p.i., n=4 mice per time point, and tissues were removed and weighed. […] Radiation dosimetry. Dosimetry calculations were performed as previously described. […] The β decay branching ratio for ^217At to ^217Rn is only 0.01% therefore it was assumed that all decays of ^217At were by […] to ^213Bi. The branching ratios for decay of ^213Bi by 98% to ^213Po and by 2% to ^209T1 were accounted for in the calculation. Due to the relatively low LET and the small dimensions of the target tissues, the β emissions from ^217At, ^213Bi, ^209T1 and ^209Pb were assumed negligible and not included in the calculations (see Bolch, W. E.; J Nucl Med 2009, 50 (3), 477-84).
Anti-tumor efficacy. Efficacy studies were performed using NCI-H69 human SCLC and NCI-H727 lung carcinoid xenograft tumors in SCID mice. […] Animals were euthanized when the experimental endpoint of 2000 mm^3 tumor volume was reached. Any euthanasia performed prior to reaching 2000 mm^3 tumor volume were due to clinical endpoints, such as 20% weight loss, tumor ulceration, hunched back, scruffy fur (no longer grooming), lethargic or slow moving. Histology and immunohistochemistry (IHC). […]

[2] = mouse, in vivo
Protocol: Radiochemical synthesis and characterization. Complexation was achieved by reacting DOTATATE (5-10 μg in 5-10 μL water from 1.0 mg/mL solution) with ^225Ac(NO3)3 (3.4 MBq) that was diluted in 100 μL of water containing 10 μL of 20% L-ascorbic acid. The pH was adjusted to 5.5-6 using 1 M Tris buffer (10-12 μL), and then incubated at 60° C. for 1 h (FIG. 1). […] Animal studies. An equal number of male and female subjects were assigned to each experimental cohort. All the animals were purchased from Charles River (Wilmington, MA). Injected Activity Measurement. […] Activities in syringes were measured using the Atomlab 500 Dose Calibrator (Biodex). Per the manufacturer's recommendations, measurements were made for 2 mins using dial number 38.2 and the assumption that ^225Ac and daughters were in secular equilibrium. […] The α activity in μCi of each radionuclide was determined by fitting each peak with a multi-Gaussian fit and integrating to determine the net number of counts while incorporating the acquisition time. The net administered activities were determined by subtraction of the residual activity in the catheter and syringe from the dose calibrator measured pre-injection activity. […] Then, mice were weighed twice per week and monitored for 5 months for signs of distressed behavior, followed by euthanasia and tissue collection. […]

[3] = Radiation dosimetry and clearance kinetics from BD data; type: in vivo; settings: for Decay half-life, Teff: ^225Ac
Protocol: as §1, with “(BD).” for “(BD). BD studies for ^225Ac-DOTATATE were performed using groups of normal non-tumor bearing BALB/c mice.”
Dosimetry calculations were performed using the generalized internal dosimetry schema of the MIRD Committee for α-particle emitters. According to MIRD #21, the absorbed radiation dose due to particle type x, Dx(rT, TD) is the mean energy imparted to target tissue rT per unit tissue mass, defined by Equation 1: […]
where A(rS, TD) is the total number of nuclear transitions in the […] (accumulated activity), Δi^x is the mean energy emitted per nuclear transition, φ(rT←rS; Ei^x) is the fraction of energy emitted per nuclear transition in the source region that is absorbed in the target region by the i^th emission that is emitted with initial energy E, k is a conversion factor, and M(rT) is the mass of the target tissue.

C[C@@H](O)[C@H](NC(=O)[C@@H]1CSSC[C@H](NC(=O)[C@@H](Cc2ccccc2)NC(=O)CN2CCN(CC(=O)O)CCN(CC(=O)O)CCN(CC(=O)O)CC2)C(=O)N[C@@H](Cc2ccc(O)cc2)C(=O)N[C@H](Cc2c[nH]c3ccccc23)C(=O)N[C@@H](CCCCN)C(=O)N[C@@H]([C@@H](C)O)C(=O)N1)C(=O)O [^225Ac-DOTATATE, metal not drawn]
survival ([1]; all dose levels): all animals survived to 5-months p.i.
treatment related pathologic changes in other studied organs (not kidney) ([1]; bone, bone marrow, brain, cecum, duodenum, liver, lymph nodes, muscle, pancreas, salivary gland, small intestine, spleen): None and no treatment related damage
ALKP among the cohorts (ANOVA and Dunnett's test) ([1]; mouse, in vivo): no significant differences
ALT among the cohorts (ANOVA and Dunnett's test) ([1]; mouse, in vivo): no significant differences
AST among the cohorts (ANOVA and Dunnett's test) ([1]; mouse, in vivo): no significant differences
Liver enzymes ([1]; mouse, in vivo): normal
acute kidney damage by pathology ([1]; mouse, in vivo): no acute kidney damage
clearance of activity from the tissues [2]: largely cleared
clearance route [2]: primarily cleared by the renal route, with some hepatic clearance
Decay half-life, Teff ([3]; Brain): 67.296 h
Decay half-life, Teff ([3]; Heart): 1732.87 h
Decay half-life, Teff ([3]; Lung): 53.318 h
Decay half-life, Teff ([3]; Muscle): 141.46 h
Decay half-life, Teff ([3]; Pancreas): 115.52 h
Decay half-life, Teff ([3]; Salivary): 90.019 h
Decay half-life, Teff ([3]; Skin): 75.343 h
Decay half-life, Teff ([3]; Spleen): 111.8 h
calculated total absorbed dose ([3]; mouse, in vivo): minimal
